Experimental data from article PMC8184657.

Molecular target: insulin (bovine insulin) (bovine)
Test: ITC

IS1 (tetrapeptide VYYR)
Ka: 0.00346 M⁻¹
dH: -18.7 kcal/mol
